Experimental data published in publication PMC5069622, “Crystal structure of human aldehyde dehydrogenase 1A3 complexed with NAD^+ and retinoic acid” (Scientific Reports, 2016).

Target: the molecule itself
Experiment: SEC; gel filtration of the purified protein, data not shown; native molecular mass of about 224000 Da

B1: human aldehyde dehydrogenase 1A3 (enzyme, UniProt P47895 1-512, looked up)
chain: MATANGAVENGQPDRKPPALPRPIRNLEVKFTKIFINNEWHESKSGKKFATCNPSTREQICEVEEGDKPDVDKAVEAAQVAFQRGSPWRRLDALSRGRLLHQLADLVERDRATLAALETMDTGKPFLHAFFIDLEGCIRTLRYFAGWADKIQGKTIPTDDNVVCFTRHEPIGVCGAITPWNFPLLMLVWKLAPALCCGNTMVLKPAEQTPLTALYLGSLIKEAGFPPGVVNIVPGFGPTVGAAISSHPQINKIAFTGSTEVGKLVKEAASRSNLKRVTLELGGKNPCIVCADADLDLAVECAHQGVFFNQGQCCTAASRVFVEEQVYSEFVRRSVEYAKKRPVGDPFDVKTEQGPQIDQKQFDKILELIESGKKEGAKLECGGSAMEDKGLFIKPTVFSEVTDNMRIAKEEIFGPVQPILKFKSIEEVIKRANSTDYGLTAAVFTKNLDKALKLASALESGTVWINCYNALYAQAPFGGFKMSGNGRELGEYALAEYTEVKTVTIKLGDKNP
notes: human ALDH1A3, full-length open reading frame amplified from cDNA of the mesenchymal glioma stem cell line 83 and cloned into pDEST17; predicted molecular weight 56108 Da; Crystallised after pre-incubation with 1 mM NAD+ and 1 mM all-trans retinoic acid; No removal of the His tag is described; In the crystal no density for the N-terminal portion and the last four residues; also called ALDH1A3; …
  stoichiometry N: 4
